Laboratory results reported in patent US11844843 (DYNE THERAPEUTICS, dated 2023).

T1: recombinant cynomolgus monkey (Macaca fascicularis) TfR1 (cynomolgus monkey (Macaca fascicularis), UniProt Q5RDH6 87-760 (Pongo abelii entry), limits assumed)
T1 construct: Recombinant protein; also called cTfR1; cyTfR1
T1 chain: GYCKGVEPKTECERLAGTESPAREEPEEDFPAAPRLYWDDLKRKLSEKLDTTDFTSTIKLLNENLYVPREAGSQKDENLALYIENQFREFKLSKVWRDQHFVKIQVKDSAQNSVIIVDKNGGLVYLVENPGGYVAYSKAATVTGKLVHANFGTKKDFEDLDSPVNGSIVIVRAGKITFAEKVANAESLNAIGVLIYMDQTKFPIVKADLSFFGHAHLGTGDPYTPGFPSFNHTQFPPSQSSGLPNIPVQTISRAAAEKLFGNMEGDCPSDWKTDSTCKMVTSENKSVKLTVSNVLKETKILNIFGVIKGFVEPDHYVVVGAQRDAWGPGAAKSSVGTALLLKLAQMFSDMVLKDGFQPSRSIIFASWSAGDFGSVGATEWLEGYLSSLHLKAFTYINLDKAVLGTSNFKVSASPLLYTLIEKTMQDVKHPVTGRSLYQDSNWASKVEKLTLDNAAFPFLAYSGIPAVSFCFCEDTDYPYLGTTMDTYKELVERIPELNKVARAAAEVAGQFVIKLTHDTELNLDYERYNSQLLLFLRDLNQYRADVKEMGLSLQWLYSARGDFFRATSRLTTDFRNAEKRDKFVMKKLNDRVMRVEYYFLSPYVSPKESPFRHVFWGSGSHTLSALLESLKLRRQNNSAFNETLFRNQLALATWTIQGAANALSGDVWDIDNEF


How the values were obtained:
[1] = target: T1, recombinant cynomolgus monkey (Macaca …); experiment: Table 14, Fab-ASO300 conjugate; method not named
[2] = target: T2, recombinant human TfR1 (transferrin receptor protein 1) (human, UniProt P02786 89-760); experiment: Table 14, Fab-ASO300 conjugate; method not named
T2 construct: Recombinant protein in SPR and ELISA; they were assigned to this molecule; also called hTfR1; huTfR1

[3] = target: T1, recombinant cynomolgus monkey (Macaca …); experiment: ELISA, recombinant TfR1 coated, Fab-ASO300 conjugate (row 'Conjugate binding affinity ELISA')
[4] = target: T2, recombinant human TfR1 (transferrin …); experiment: as above
[5] = target: T1, recombinant cynomolgus monkey (Macaca …); experiment: ELISA on cTfR1, Fab conjugated to DMPK-targeting oligonucleotide, % normalized RFUs
[6] = target: T2, recombinant human TfR1 (transferrin …); experiment: ELISA on hTfR1, Fab conjugated to DMPK-targeting oligonucleotide, % normalized RFUs
[7] = target: T1, recombinant cynomolgus monkey (Macaca …); experiment: Avg KD, antibody alone; method not stated in Table 11
[8] = target: T2, recombinant human TfR1 (transferrin …); experiment: as above
[9] = target: T2, recombinant human TfR1 (transferrin …); experiment: Carterra LSA SPR, 25 C; IgG captured, hTfR1 as analyte; 1:1 fit
Procedure: Selected anti-TfR1 antibodies were tested for their binding affinity to human TfR1 for measurement of Ka (association rate constant). Kd (dissociation rate constant), and K_D (affinity). […] The binding experiment was performed on Carterra LSA at 25° C. An anti-mouse IgG and anti-human IgG antibody "lawn" was prepared on a HC30M chip by amine coupling. The IgGs were captured on the chip. Dilution series of hTfR1, cyTfR1, and hTfR2 were injected to the chip for binding (starting from 1000 nM, 1:3 dilution, 8 concentrations).
Binding data were referenced by subtracting the responses from a buffer analyte injection and globally fitting to a 1:1 Langmuir binding model for estimate of Ka (association rate constant), Kd (dissociation rate constant), and K_D (affinity) using the Carterra™ Kinetics software, 5-6 concentrations were used for curve fitting.

[10] = target: T2, recombinant human TfR1 (transferrin …); experiment: ELISA on hTfR1, Fab conjugated to DMPK-targeting oligonucleotide, % normalized RFUs; remark: listed apart in the source
[11] = target: T1, recombinant cynomolgus monkey (Macaca …); experiment: ELISA on cTfR1, Fab conjugated to DMPK-targeting oligonucleotide, % normalized RFUs

| DMPK oligo conjugate binding [1] | DMPK oligo conjugate binding [2] | EC50 [3] | EC50 [4] | EC50 [5] | EC50 [6] | Kd [7] | Kd [8] | Kd [9] | kon [9] | EC50 [10] | EC50 [11] | Binder |
| --- | --- | --- | --- | --- | --- | --- | --- | --- | --- | --- | --- | --- |
| 4.1 nM | 2.71 nM | 7.8 nM | 2.9 nM | 5.7 nM | 3.6 nM |  |  |  |  |  |  | conjugate of humanized anti-TfR Fab 3A4 VH3 (N54S)/Vκ4 with DMPK-targeting oligonucleotide ASO300 (Fab, V domains shown, oligonucleotide ASO300 conjugated to the Fab via linker; residue and chain not stated, also called 3A4 (VH3-N54S/Vk4) conjugate) VH: EVQLVQSGSELKKPGASVKVSCTASGFNIKDDYMYWVRQPPGKGLEWIGWIDPESGDTEYASKFQDRVTVTADTSTNTAYMELSSLRSEDTAVYYCTLWLRRGLDYWGQGTLVTVSS VL: DIVMTQSPLSLPVTPGEPASISCRSSKSLLHSNGYTYLFWFQQRPGQSPRLLIYRMSNLASGVPDRFSGSGSGTDFTLKISRVEAEDVGVYYCMQHLEYPFTFGGGTKVEIKR |
| 5.12 nM | 2.22 nM | 4.7 nM | 2.8 nM | 5.8 nM | 3.3 nM |  |  |  |  |  |  | conjugate of humanized anti-TfR Fab 3A4 VH3 (N54T)/Vκ4 with DMPK-targeting oligonucleotide ASO300 (Fab, V domains shown, oligonucleotide ASO300 conjugated to the Fab via linker; residue and chain not stated, also called 3A4 (VH3-N54T/Vk4) conjugate) VH: EVQLVQSGSELKKPGASVKVSCTASGFNIKDDYMYWVRQPPGKGLEWIGWIDPETGDTEYASKFQDRVTVTADTSTNTAYMELSSLRSEDTAVYYCTLWLRRGLDYWGQGTLVTVSS VL: DIVMTQSPLSLPVTPGEPASISCRSSKSLLHSNGYTYLFWFQQRPGQSPRLLIYRMSNLASGVPDRFSGSGSGTDFTLKISRVEAEDVGVYYCMQHLEYPFTFGGGTKVEIKR |
| 7.59 nM | 2.84 nM | 7.6 nM | 2.8 nM |  |  |  |  |  |  |  |  | conjugate of humanized anti-TfR Fab 3A4 VH3/Vκ4 with DMPK-targeting oligonucleotide ASO300 (Fab, V domains shown, oligonucleotide ASO300 conjugated to the Fab via linker; residue and chain not stated, also called 3A4 (VH3/Vk4) conjugate) VH: EVQLVQSGSELKKPGASVKVSCTASGFNIKDDYMYWVRQPPGKGLEWIGWIDPENGDTEYASKFQDRVTVTADTSTNTAYMELSSLRSEDTAVYYCTLWLRRGLDYWGQGTLVTVSS VL: DIVMTQSPLSLPVTPGEPASISCRSSKSLLHSNGYTYLFWFQQRPGQSPRLLIYRMSNLASGVPDRFSGSGSGTDFTLKISRVEAEDVGVYYCMQHLEYPFTFGGGTKVEIKR |
|  |  |  |  |  |  | 2.32 nM | 0.436 nM | 0.436 nM | 447000 M⁻¹ s⁻¹ |  |  | 3-A4 mouse monoclonal anti-TfR antibody (antibody, V domains shown, Mouse monoclonal IgG; also called 3-A04) VH: EVQLQQSGAELVRPGASVKLSCTASGFNIKDDYMYWVKQRPEQGLEWIGWIDPENGDTEYASKFQDKATVTADTSSNTAYLQLSSLTSEDTAVYYCTLWLRRGLDYWGQGTSVTVSS VL: DIVMTQAAPSVPVTPGESVSISCRSSKSLLHSNGYTYLFWFLQRPGQSPQLLIYRMSNLASGVPDRFSGSGSGTAFTLRISRVEAEDVGVYYCMQHLEYPFTFGGGTKLEIK |
|  |  |  |  |  |  | 12 nM | 202 nM | 208 nM | 66700 M⁻¹ s⁻¹ |  |  | 5-H12 mouse monoclonal anti-TfR antibody (antibody, V domains shown, Mouse monoclonal IgG) VH: QIQLQQSGPELVRPGASVKISCKASGYSFTDYCINWVNQRPGQGLEWIGWIYPGSGNTRYSERFKGKATLTVDTSSNTAYMQLSSLTSEDSAVYFCAREDYYPYHGMDYWGQGTSVTVSS VL: DIVLTQSPTSLAVSLGQRATISCRASESVDGYDNSFMHWYQQKPGQPPKLLIFRASNLESGIPARFSGSGSRTDFTLTINPVEAADVATYYCQQSSEDPWTFGGGTKLEIK |
| 1.85 nM | 1.18 nM | 2.1 nM | 1.7 nM |  |  |  |  |  |  | 1.7 nM | 2.1 nM | conjugate of humanized anti-TfR Fab 3M12 VH4/Vκ3 with DMPK-targeting oligonucleotide ASO300 (Fab, V domains shown, oligonucleotide ASO300 conjugated to the Fab via linker; residue and chain not stated, also called 3M12 (VH4/Vk3) conjugate) VH: QVQLQESGPGLVKPSQTLSLTCTVTGYSITSGYYWNWIRQPPGKGLEWIGYITFDGANNYNPSLKNRVSISRDTSKNQFSLKLSSVTAEDTATYYCTRSSYDYDVLDYWGQGTTVTVSS VL: DIQMTQSPSSLSASVGDRVTITCRASQDISNFLNWYQQKPGQPVKLLIYYTSRLHSGVPSRFSGSGSGTDFTLTISSLQPEDFATYYCQQGHTLPYTFGQGTKLEIKR |
| 2.26 nM | 1.14 nM | 2.9 nM | 2.2 nM |  |  |  |  |  |  | 2.2 nM | 2.9 nM | conjugate of humanized anti-TfR Fab 3M12 VH3/Vκ2 with DMPK-targeting oligonucleotide ASO300 (Fab, V domains shown, oligonucleotide ASO300 conjugated to the Fab via linker; residue and chain not stated, also called 3M12 (VH3/Vk2) conjugate) VH: QVQLQESGPGLVKPSQTLSLTCSVTGYSITSGYYWNWIRQPPGKGLEWMGYITFDGANNYNPSLKNRVSISRDTSKNQFSLKLSSVTAEDTATYYCTRSSYDYDVLDYWGQGTTVTVSS VL: DIQMTQSPSSLSASVGDRVTITCRASQDISNFLNWYQQKPGQPVKLLIYYTSRLHSGVPSRFSGSGSGTDFTLTISSLQPEDFATYFCQQGHTLPYTFGQGTKLEIKR |
| 10.2 nM | 110 nM | 10.2 nM | 110 nM |  |  |  |  |  |  |  |  | conjugate of humanized anti-TfR Fab 5H12 VH5 (C33D)/Vκ4 with DMPK-targeting oligonucleotide ASO300 (Fab, V domains shown, oligonucleotide ASO300 conjugated to the Fab via linker; residue and chain not stated, also called 5H12 (VH5-C33D/Vk4) conjugate) VH: QVQLVQSGAEVKKPGASVKVSCKASGYSFTDYDINWVRQAPGQGLEWMGWIYPGSGNTRYSERFKGRVTITRDTSASTAYMELSSLRSEDTAVYYCAREDYYPYHGMDYWGQGTLVTVSS VL: DIVMTQSPDSLAVSLGERATINCRASESVDGYDNSFMHWYQQKPGQPPKLLIFRASNLESGVPDRFSGSGSGTDFTLTISSLQAEDVAVYYCQQSSEDPWTFGQGTKLEIKR |
|  |  |  |  |  |  | 5.18 nM | 0.768 nM | 0.768 nM | 166000 M⁻¹ s⁻¹ |  |  | 3-M12 mouse monoclonal anti-TfR antibody (antibody, V domains shown, Mouse monoclonal IgG) VH: DVQLQESGPGLVKPSQSLSLTCSVTGYSITSGYYWNWIRQFPGNKLEWMGYITFDGANNYNPSLKNRISITRDTSKNQFFLKLTSVTTEDTATYYCTRSSYDYDVLDYWGQGTTLTVSS VL: DIQMTQTTSSLSASLGDRVTISCRASQDISNFLNWYQQRPDGTVKLLIYYTSRLHSGVPSRFSGSGSGTDFSLTVSNLEQEDIATYFCQQGHTLPYTFGGGTKLEIK |
